Reference: patent US20180030546

Target: RAP1 (RAP1-GTPase) (UniProt P62834)
Sequence (P62834 1-181): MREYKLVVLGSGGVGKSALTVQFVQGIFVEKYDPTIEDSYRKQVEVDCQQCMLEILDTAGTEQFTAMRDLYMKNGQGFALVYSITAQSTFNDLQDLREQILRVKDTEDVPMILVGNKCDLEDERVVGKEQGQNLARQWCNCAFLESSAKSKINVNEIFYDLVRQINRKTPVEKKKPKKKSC

Rap1GAP (RAP1 GTPase Activating Protein)
RAP1 activity (active GTP-bound RAP1 pull-down, immunoblot with RAP1 antibody): Enforced Rap1GAP expression in human GICs inhibited RAP1 activity
